Changes are numbered by the printed parent chain.
B1: v36180-MC-GGFG-Compound 141 (DAR8) (antibody, human IgG1, kappa, V domains shown)
VH: EVQLVQSGAEVKKPGSSVKVSCKASGYTFTDYEMHWVRQAPGQGLEWIGAIDPETGDTAYNQKFKGRATLTADKSTSTAYMELSSLRSEDTAVYYCTRYFSFAYWGQGTLVTVSS
VL: DVQMTQSPSSVSASVGDRVTITCRSSQSLRHSNGNTYLQWYQQKPGKAPKLLIYKVSNRFSGVPSRFSGSGSGTDFTLTISSLQPEDFATYFCYQSKHVPYTFGQGTKVEIKR
modifications: MC-GGFG-Compound 141 drug-linker on reduced cysteines, sites not stated; MC-GGFG-Compound 141 drug-linker on reduced cysteines, sites not stated; DAR 8 for the whole antibody
B2: v36180-MC-GGFG-AM-Compound 139 (DAR8) (antibody, human IgG1, kappa, V domains shown)
VH: B1 VH
VL: B1 VL
modifications: MC-GGFG-AM-Compound 139 drug-linker on reduced cysteines, sites not stated; MC-GGFG-AM-Compound 139 drug-linker on reduced cysteines, sites not stated; DAR 8 for the whole antibody
B3: v36180-MC-GGFG-AM-Compound 141 (DAR8) (antibody, human IgG1, kappa, V domains shown)
VH: B1 VH
VL: B1 VL
modifications: MC-GGFG-AM-Compound 141 drug-linker on reduced cysteines, sites not stated; MC-GGFG-AM-Compound 141 drug-linker on reduced cysteines, sites not stated; DAR 8 for the whole antibody
B4: M3-H18L6 (WT) mAb, v38592 (antibody, human IgG1, kappa)
heavy: not shown
light: EIVLTQSPATLSLSPGERATISCRSSQSLRHSNGNTYLQWYQQKPGQAPRLLIYKVSNRFSGVPARFSGSGSGTDFTLTISSLEPEDFAVYFCYQSKHVPYTFGGGTKVEIKRTVAAPSVFIFPPSDEQLKSGTASVVCLLNNFYPREAKVQWKVDNALQSGNSQESVTEQDSKDSTYSLSSTLTLSKADYEKHKVYACEVTHQGLSSPVTKSFNRGEC
notes: Full-size IgG1/kappa; also called wild-type M3-H18L6; M3-H18L6 with HC C-terminal lysine
B5: H18L6_LC_G34D mAb, v40203 (antibody, human IgG1, kappa, V domains shown)
VH: B1 VH with E1Q, R38K, Q43H, R67K, K74T
VL: EIVLTQSPATLSLSPGERATISCRSSQSLRHSNDNTYLQWYQQKPGQAPRLLIYKVSNRFSGVPARFSGSGSGTDFTLTISSLEPEDFAVYFCYQSKHVPYTFGGGTKVEIKR
B6: H18L6_LC_G34E mAb, v40204 (antibody, human IgG1, kappa, V domains shown)
VH: B1 VH with E1Q, R38K, Q43H, R67K, K74T
VL: B5 VL with D34E
notes: M3-H18L6 chains with the stated light chain point mutation, IgG1/kappa
B7: H18L6_LC_G34A mAb, v40212 (antibody, human IgG1, kappa, V domains shown)
VH: B1 VH with E1Q, R38K, Q43H, R67K, K74T
VL: B5 VL with D34A
notes: as for B6
B8: v40218, H18L6_LC_N33H mAb (antibody, human IgG1, kappa, V domains shown)
VH: B1 VH with E1Q, R38K, Q43H, R67K, K74T
VL: B5 VL with N33H, D34G
notes: no number given for this variant
B9: v40221, H18L6_LC_N33S mAb (antibody, human IgG1, kappa, V domains shown)
VH: B1 VH with E1Q, R38K, Q43H, R67K, K74T
VL: B5 VL with N33S, D34G
notes: as for B8
B10: v40220, H18L6_LC_N33Q mAb (antibody, human IgG1, kappa, V domains shown)
VH: B1 VH with E1Q, R38K, Q43H, R67K, K74T
VL: B5 VL with N33Q, D34G
notes: as for B8
B11: v40219, H18L6_LC_N33A mAb (antibody, human IgG1, kappa, V domains shown)
VH: B1 VH with E1Q, R38K, Q43H, R67K, K74T
VL: B5 VL with N33A, D34G
notes: as for B8
B12: v40216, H18L6_LC_N33R mAb (antibody, human IgG1, kappa, V domains shown)
VH: B1 VH with E1Q, R38K, Q43H, R67K, K74T
VL: B5 VL with N33R, D34G
notes: as for B8
B13: v40217, H18L6_LC_N33K mAb (antibody, human IgG1, kappa, V domains shown)
VH: B1 VH with E1Q, R38K, Q43H, R67K, K74T
VL: B5 VL with N33K, D34G
notes: as for B8
B14: v40215, H18L6_LC_N33V mAb (antibody, human IgG1, kappa, V domains shown)
VH: B1 VH with E1Q, R38K, Q43H, R67K, K74T
VL: B5 VL with N33V, D34G
notes: as for B8

The binders below were run against human GPC3 on cells (human, UniProt P51654 25-554) (assay: cell-based or functional assay).
Throughout, for JHH-5 Internalization (MFI), Day 0 in mouse plasma: test concentration or dose not given here.
Throughout, for JHH-5 Internalization (MFI), Day 14 in mouse plasma: test concentration or dose not given here.
Throughout, for JHH-5 Internalization (MFI): test concentration or dose not given here.
Throughout, for JHH-7 Internalization (MFI), Day 0 in mouse plasma: test concentration or dose not given here.
Throughout, for JHH-7 Internalization (MFI), Day 14 in mouse plasma: test concentration or dose not given here.
Throughout, for JHH-7 Internalization (MFI): test concentration or dose not given here.

Binder	EC50 (nM), cytotoxicity, 2D monolayer, HepG2 (High)	EC50 (nM), cytotoxicity, 2D monolayer, Huh-6 (Mid)	EC50 (nM), cytotoxicity, 2D monolayer, Huh-7 (Mid)	EC50 (nM), cytotoxicity, 2D monolayer, JHH-5 (Mid)	EC50 (nM), cytotoxicity, 2D monolayer, JHH-7 (High)
B1	0.03 nM	0.12 nM	0.03 nM	0.11 nM	0.03 nM
B2	0.09 nM		0.01 nM	0.14 nM	1 nM
B3	0.03 nM	0.12 nM	0.01 nM	0.08 nM	0.02 nM

These binders were tested against T1, human glypican-3 (GPC3) (human, UniProt P51654 25-554) (assay: cell-based or functional assay).

Binder	JHH-5 Internalization (MFI)	JHH-7 Internalization (MFI)
B4	10500 MFI	7260 MFI
B5	6770 MFI	5010 MFI
B6	5770 MFI	4410 MFI
B7	9070 MFI	8070 MFI

Target: T1, human glypican-3 (GPC3)
Assay: cell-based or functional assay
Remark: another data set of the same source

Binder	JHH-5 Internalization (MFI), Day 0 in mouse plasma	JHH-5 Internalization (MFI), Day 14 in mouse plasma	JHH-7 Internalization (MFI), Day 0 in mouse plasma	JHH-7 Internalization (MFI), Day 14 in mouse plasma
B4	12200 MFI	7250 MFI	152 MFI	76 MFI
B5	8690 MFI	5690 MFI	104 MFI	63 MFI
B6	7100 MFI	6040 MFI	91 MFI	73 MFI
B7	10200 MFI	7290 MFI	131 MFI	75 MFI

What follows are binders tested against T1, human glypican-3 (GPC3) (assay: flow cytometry on JHH-5 cells (GPC3-mid);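 note: antibody binding to cells at 4 °C for 24 h, detected with anti-human AF647 as geometric mean fluorescence of live cells versus antibody concentration, fitted by specific binding with Hill slope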).
Method: (§1) Briefly, cells were seeded at 50,000 cells/well in V-bottom 96-well plates and treated with antibody for 24 hours at 4° C. to prevent internalization. […] Following incubation and washing, fluorescence was detected by flow cytometry on a BD LSRFortessa™ Cell Analyzer (BD Biosciences, Franklin Lake, NJ) with 1,000 minimum events collected per well. AF647/APC-A GeoMean (fluorescence signal geometric mean, proportional to anti-Human AF647 binding) in live cell population was plotted against antibody concentration using GraphPad Prism Version 9 (GraphPad Software, San Diego, CA). The Bmax, Curve Hill Slope (h) and Kd values were derived from the “Specific binding with Hill slope” nonlinear regression curve fit in GraphPad Prism Version 9.

Binder	Bmax (MFI)	Kd
B4	4670 MFI	0.12 nM
B5	4280 MFI	0.24 nM
B6	4140 MFI	0.17 nM
B7	3850 MFI	0.31 nM

What follows are binders tested against T1, human glypican-3 (GPC3) (assay: flow cytometry on JHH-7 cells (GPC3-high);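 note: antibody binding at 4 °C for 24 h, detected with anti-human AF647 secondary, geometric mean fluorescence of live cells versus antibody concentration, fitted as specific binding with Hill slope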).
Method: as §1

Binder	Bmax (MFI)	Kd
B4	14100 MFI	0.42 nM
B5	12200 MFI	0.4 nM
B6	12500 MFI	0.42 nM
B7	13300 MFI	0.56 nM

Each binder was assayed against T2, recombinant cynomolgus GPC3 (glypican-3) (cynomolgus monkey, UniProt A0A2K5VK50 24-558) (assay: SPR; Kd on human GPC3 divided by Kd on cynomolgus GPC3).
T2 construct: also called cynoGPC3
Method: (§2) CM5 Series S sensor chip, Biacore™ amine coupling kit (NHS, EDC and 1 M ethanolamine), and 10 mM sodium acetate buffers were purchased from Cytiva Life Sciences (Mississauga, ON, Canada). PBS running buffer with 0.05% Tween20 (PBST) was purchased from Teknova Inc. (Hollister, CA). Antigens: recombinant human and cynomolgus GPC3 was purchased from ACROBiosystems (Newark, DE) and SEC purified on a Superdex 200 10/300 GL column (Cytiva) in PBST running buffer at 0.8 mL/min.
(§3) Screening of the antibodies for binding to GPC3 antigen was conducted via anti-Fc capture of antibodies, followed by the injection of five concentrations of GPC3. The anti-Fc surface was prepared on a CM5 Series S sensor chip by standard amine coupling methods as described by the manufacturer (Cytiva Life Sciences, Mississauga, ON, Canada). […] Approximately 150-400 RUs of each antibody (5-20 μg/mL) were captured on the goat anti-human IgG surface by injecting at 10 μL/min for 60s. Using single-cycle kinetics, five concentrations of a two-fold dilution series of human or cynomolgus GPC3 starting at 40 nM, 20 nM, 10 nM, or 5 nM depending on the antibody, with a blank buffer control were injected at 20 μL/min for 180s of contact time, followed by 180 s dissociation phase, resulting in sensorgrams with a buffer blank reference. The anti-Fc surface was regenerated to prepare for the next injection cycle by one pulse of 10 mM glycine/HCl pH 1.5 for 120 s at 40 μL/min. Blank-subtracted sensorgrams were analyzed and fit to the 1:1 Langmuir binding model using Biacore™ T200 Evaluation Software v3.2.

Binder	Kd Fold difference (hu/cyno)
B8	2.1 fold
B9	1.24 fold
B10	1.12 fold
B11	1.77 fold
B12	1.82 fold
B13	1.3 fold
B14	1.27 fold

Each binder was assayed against T1, human glypican-3 (GPC3) (assay: flow cytometry on CHO-S cells transfected with human GPC3;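 note: antibody binding to transiently transfected CHO-S cells after 24 hours at 4 °C, read as geometric mean fluorescence of anti-human AF647 in live cells, fitted against antibody concentration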).
Method: (§4) Briefly, CHO—S cells were transiently transfected for −24 hours with a pTT5-based expression plasmid encoding human GPC3 or cynomolgus monkey GPC3, 0.5 μg DNA per 1 million cells, using the Neon™ Transfection System (Thermo Fisher Scientific Corp., Waltham, MA), to transiently express human or cynomolgus monkey GPC3. Cells transfected with GFP were used as negative transfection controls. Following transfection, cells were seeded at 50,000 cells/well in V-bottom 96-well plates and treated with antibody for 24 hours at 4° C. to prevent internalization. […] Following incubation and washing, fluorescence was detected by flow cytometry on a BD LSRFortessa™ Cell Analyzer (BD Biosciences, Franklin Lake, NJ) with 1,000 minimum events collected per well. AF647/APC-A GeoMean (fluorescence signal geometric mean, proportional to anti-Human AF647 binding) in live cell population was plotted against antibody concentration using GraphPad Prism Version 9 (GraphPad Software, San Diego, CA). The Bmax and Kd values were derived from the “Specific binding with Hill slope” nonlinear regression curve fit in GraphPad Prism Version 9.

Binder	Bmax (MFI)	Kd
B4	2530 MFI	0.14 nM
B5	2470 MFI	0.18 nM
B6	2260 MFI	0.11 nM
B7	2200 MFI	0.12 nM

These binders were tested against T3, cynomolgus monkey glypican-3 (GPC3) (cynomolgus monkey, UniProt A5A6P7 25-554 (Pan troglodytes entry)) (assay: flow cytometry on CHO-S cells transfected with cynomolgus GPC3;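 note: antibodies incubated 24 h at 4 °C with transiently transfected cells, binding read as AF647 geometric mean fluorescence of live cells, GFP-transfected cells as negative control, Hill-slope specific-binding fit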).
T3 construct: Transiently expressed on CHO-S cells; also called cynoGPC3; CynoGPC3-CHO
Method: as §4

Binder	Bmax (MFI)	Kd
B4	3150 MFI	0.19 nM
B5	2870 MFI	0.18 nM
B6	2870 MFI	0.15 nM
B7	3160 MFI	0.25 nM

The binders below were run against T1, human glypican-3 (GPC3) (assay: flow cytometry on JHH-5 cells; antibody in mouse plasma, day 0).
Method: (§5) For binding cells were seeded at 50,000 cells/well in V-bottom 96-well plates and treated with antibody for 24 hours at 4° C. to prevent internalization. […] Following incubation and washing, fluorescence was detected by flow cytometry on a BD LSRFortessa™ Cell Analyzer (BD Biosciences, Franklin Lake, NJ) with 1,000 minimum events collected per well. AF647/APC-A GeoMean (fluorescence signal geometric mean, proportional to anti-Human AF647 binding) in live cell population was plotted against antibody concentration using GraphPad Prism Version 9 (GraphPad Software, San Diego, CA). The Bmax, Curve Hill Slope (h) and Kd values were derived from the “Specific binding with Hill slope” nonlinear regression curve fit in GraphPad Prism Version 9.

Binder	Bmax (MFI)	Kd
B4	5130 MFI	0.14 nM
B5	4660 MFI	0.11 nM
B6	4760 MFI	0.11 nM
B7	4930 MFI	0.15 nM

What follows are binders tested against T1, human glypican-3 (GPC3) (assay: flow cytometry on JHH-7 cells; antibody in mouse plasma, day 0).
Method: as §5

Binder	Bmax (MFI)	Kd
B4	9770 MFI	0.39 nM
B5	9140 MFI	0.26 nM
B6	8500 MFI	0.26 nM
B7	8360 MFI	0.36 nM

The binders below were run against T4, recombinant human GPC3 (glypican-3) (human, UniProt P51654 25-559) (assay: SPR (Biacore T200), antibody captured by anti-Fc, GPC3 injected).
T4 construct: also called huGPC3; hGPC3
Method: as §2, §3

Binder	Avg % binding huGPC3 (RU observed/theoretical)
B8	15.6%
B9	18%
B10	16.1%
B11	17.4%
B12	15.8%
B13	15.5%
B14	17.5%

What follows are binders tested against T1, human glypican-3 (GPC3) (assay: flow cytometry on JHH-5 cells; antibody after 14 days in mouse plasma at 37 C).
Method: as §5

Binder	Bmax (MFI)	Kd
B5	4520 MFI	0.34 nM
B6	4460 MFI	0.26 nM
B7	6050 MFI	0.23 nM

What follows are binders tested against T1, human glypican-3 (GPC3) (assay: flow cytometry on JHH-7 cells; antibody after 14 days in mouse plasma at 37 C).
Method: as §5

Binder	Bmax (MFI)	Kd
B5	8060 MFI	0.62 nM
B6	8430 MFI	0.67 nM
B7	11300 MFI	0.28 nM

These binders were tested against T4, recombinant human GPC3 (glypican-3) (assay: SPR (Biacore T200), antibody captured by anti-Fc, GPC3 injected, single-cycle kinetics, 1:1 fit; average).
Method: as §2, §3

Binder	Kd
B8	20.1 nM
B9	19.5 nM
B10	17.5 nM
B11	18.3 nM
B12	20.1 nM
B13	18.2 nM
B14	22.5 nM

Each binder was assayed against T2, recombinant cynomolgus GPC3 (glypican-3) in the same assay as above.
Method: as §2, §3

Binder	Kd
B8	9.57 nM
B9	15.8 nM
B10	15.7 nM
B11	10.4 nM
B12	11.1 nM
B13	14 nM
B14	17.8 nM

Reference: US20250295799A1 (Zymeworks, published 2025)
